Laboratory results taken from publication PMC4605305, “TRAP150 interacts with the RNA-binding domain of PSF and antagonizes splicing of numerous PSF-target genes in T cells” (Nucleic Acids Research, 2015).

T1: GST-TRAP266–755 (UniProt Q9Y2W1 266-755)
T1 construct: source: E. coli Rosetta(DE3)pLysS, purified (glutathione sepharose, SEC); not shown: GST, N-terminal, kept
T1 sequence (looked up): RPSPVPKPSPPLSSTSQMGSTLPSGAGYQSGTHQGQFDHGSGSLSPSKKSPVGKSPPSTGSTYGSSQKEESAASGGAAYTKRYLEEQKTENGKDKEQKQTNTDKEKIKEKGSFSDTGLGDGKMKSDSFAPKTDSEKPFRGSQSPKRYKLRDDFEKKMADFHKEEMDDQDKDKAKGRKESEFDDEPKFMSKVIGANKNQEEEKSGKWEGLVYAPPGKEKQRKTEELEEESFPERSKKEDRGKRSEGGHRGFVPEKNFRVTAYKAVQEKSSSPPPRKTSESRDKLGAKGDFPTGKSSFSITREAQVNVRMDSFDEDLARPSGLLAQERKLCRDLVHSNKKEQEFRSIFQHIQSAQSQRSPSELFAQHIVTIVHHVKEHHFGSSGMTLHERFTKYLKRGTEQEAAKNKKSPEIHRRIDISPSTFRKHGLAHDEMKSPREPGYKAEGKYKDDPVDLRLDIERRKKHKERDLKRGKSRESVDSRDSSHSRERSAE

T2: HisFLAG-PSF full length (UniProt P23246 1-707)
T2 construct: PSF (SFPQ), full length; pet15b with an inserted FLAG tag; also called PSF-FL; full length His-tagged PSF; source: E. coli Rosetta(DE3)pLysS, purified (Ni-NTA, SEC); not shown: His6, N-terminal, kept; FLAG, N-terminal, kept
T2 sequence (looked up): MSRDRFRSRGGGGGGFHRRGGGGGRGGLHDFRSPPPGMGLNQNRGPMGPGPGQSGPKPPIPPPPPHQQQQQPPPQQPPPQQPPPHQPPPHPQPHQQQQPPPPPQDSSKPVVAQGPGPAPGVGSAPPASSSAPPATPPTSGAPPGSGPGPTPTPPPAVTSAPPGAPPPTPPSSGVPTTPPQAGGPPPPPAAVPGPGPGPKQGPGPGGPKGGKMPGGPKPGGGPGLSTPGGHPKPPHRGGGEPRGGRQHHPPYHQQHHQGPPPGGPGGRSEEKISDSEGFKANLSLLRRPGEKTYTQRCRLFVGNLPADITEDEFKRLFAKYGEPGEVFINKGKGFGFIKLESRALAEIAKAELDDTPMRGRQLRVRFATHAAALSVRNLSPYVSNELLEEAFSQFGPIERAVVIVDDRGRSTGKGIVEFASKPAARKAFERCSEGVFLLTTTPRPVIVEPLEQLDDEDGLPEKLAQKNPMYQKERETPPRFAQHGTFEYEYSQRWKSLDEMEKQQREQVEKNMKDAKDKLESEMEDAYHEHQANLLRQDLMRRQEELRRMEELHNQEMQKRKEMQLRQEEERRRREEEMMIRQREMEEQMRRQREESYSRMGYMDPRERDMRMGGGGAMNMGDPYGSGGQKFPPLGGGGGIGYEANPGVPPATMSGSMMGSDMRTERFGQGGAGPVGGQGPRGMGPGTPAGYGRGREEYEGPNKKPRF

T3: PSF exRRMs (human, UniProt P23246 266-484)
T3 sequence: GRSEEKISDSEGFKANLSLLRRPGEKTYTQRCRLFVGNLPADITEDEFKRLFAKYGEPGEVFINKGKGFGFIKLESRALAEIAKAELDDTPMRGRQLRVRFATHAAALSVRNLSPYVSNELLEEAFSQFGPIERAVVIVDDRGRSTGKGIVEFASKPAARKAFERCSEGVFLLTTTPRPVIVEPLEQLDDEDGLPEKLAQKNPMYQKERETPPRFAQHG

T4: PSF exRRM2 (human, UniProt P23246 366-484)
T4 sequence: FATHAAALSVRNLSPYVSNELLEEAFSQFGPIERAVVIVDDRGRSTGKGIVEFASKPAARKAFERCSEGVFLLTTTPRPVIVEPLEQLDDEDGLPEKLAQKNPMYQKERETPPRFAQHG

T5: PSF exRRM1 (human, UniProt P23246 266-365)
T5 sequence: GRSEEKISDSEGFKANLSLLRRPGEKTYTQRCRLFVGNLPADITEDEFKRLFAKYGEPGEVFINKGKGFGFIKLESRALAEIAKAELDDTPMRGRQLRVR

B1: HisFLAG-PSF exRRMs (266-484) (domain or fragment, UniProt P23246 266-484, looked up)
chain: T3 sequence
notes: also called HisFLAG-exRRMs; HFexRRM1+2; source: E. coli Rosetta(DE3)pLysS, purified (Ni-NTA, SEC); not shown: His6, N-terminal, kept; FLAG, N-terminal, kept
B2: GST-TRAPΔN (TRAP150 266-955) (domain or fragment, UniProt Q9Y2W1 266-955, looked up)
chain: RPSPVPKPSPPLSSTSQMGSTLPSGAGYQSGTHQGQFDHGSGSLSPSKKSPVGKSPPSTGSTYGSSQKEESAASGGAAYTKRYLEEQKTENGKDKEQKQTNTDKEKIKEKGSFSDTGLGDGKMKSDSFAPKTDSEKPFRGSQSPKRYKLRDDFEKKMADFHKEEMDDQDKDKAKGRKESEFDDEPKFMSKVIGANKNQEEEKSGKWEGLVYAPPGKEKQRKTEELEEESFPERSKKEDRGKRSEGGHRGFVPEKNFRVTAYKAVQEKSSSPPPRKTSESRDKLGAKGDFPTGKSSFSITREAQVNVRMDSFDEDLARPSGLLAQERKLCRDLVHSNKKEQEFRSIFQHIQSAQSQRSPSELFAQHIVTIVHHVKEHHFGSSGMTLHERFTKYLKRGTEQEAAKNKKSPEIHRRIDISPSTFRKHGLAHDEMKSPREPGYKAEGKYKDDPVDLRLDIERRKKHKERDLKRGKSRESVDSRDSSHSRERSAEKTEKTHKGSKKQKKHRRARDRSRSSSSSSQSSHSYKAEEYTEETEEREESTTGFDKSRLGTKDFVGPSERGGGRARGTFQFRARGRGWGRGNYSGNNNNNSNNDFQKRNREEEWDPEYTPKSKKYYLHDDREGEGSDKWVSRGRGRGAFPRGRGRFMFRKSSTSPKWAHDKFSGEEGEIEDDESGTENREEKDNIQPTTE
notes: pGEX-6-P1; also called GST-TRAP150ΔN; TRAP150-ΔN; source: E. coli Rosetta(DE3)pLysS, purified (glutathione sepharose, SEC); not shown: GST, N-terminal, kept
B3: Gb1-tagged TRAP150 686–755 (TRAP-PID) (domain or fragment, UniProt Q9Y2W1 686-755, looked up)
chain: FRKHGLAHDEMKSPREPGYKAEGKYKDDPVDLRLDIERRKKHKERDLKRGKSRESVDSRDSSHSRERSAE
notes: 6xHis + GB1 fusion vector pGβ1; also called Gb1-tagged construct of the TRAP-PID; source: E. coli Rosetta(DE3)pLysS, purified (Ni-NTA, SEC)
B4: SRL-1 (ssRNA)
RNA: AACCAAGAGGUUUCUCGCGUAUUUCUCUCAUUUUUUUACCCAUUUUACAAAUUUUUUUUGCUAUUUGAGCCAUAGUACCCAUUAAUAGGUCUCGUCCAUUCCCUUGUUUUUUUUUUAUUGUUUCAAUUACACUACAUAAUUAAAAAUCACAUCACUUUCACUCUCACCUUAGUCGUUCUUUAUCAACCAAAAAUAAAAAAAUGCUUCAAUCCGUUGUCUU
B5: MKK7 (ssRNA)
RNA: CCUCCUCGUUUAUGAUUUGAUUUCUUUUCUUUUGGACGAAUCGGUCGUUUCUGUUGUGAUUUAUCGUGGUGUUGUUUUUUUCUUCCUUUUCCCCAUCCAG

Tests used:
[1] = target: T1, GST-TRAP266–755; experiment: pull-down; 40 ug GST-tagged bait on glutathione sepharose 4B beads; prey incubated 1.5 h at 4°C in PBS; washes with PBS supplemented with 300 mM NaCl; western blot; details: both partners purified
[2] = target: B2; experiment: as above; details: both partners purified
[3] = target: T2, HisFLAG-PSF full length; experiment: as above; details: both partners purified
[4] = target: B1; experiment: pull-down; Gb1-tagged TRAP150 686-755 precipitated with IgG beads; HisFLAG-exRRMs detected; details: both partners purified
[5] = target: T3, PSF exRRMs; experiment: EMSA; UV crosslinking: 12 mM Tris pH 7.5, 120 mM NaCl, 3 mM MgCl2, 1 mM ATP, 20 mM phosphocreatine, 0.1 mM EDTA, 12% glycerol, 1.3% PVA, 25 ng/ul yeast tRNA, 20 ng/ul; details: protein: recombinant; tags: 6xHis-FLAG N-term; label: uniform 32P
[6] = target: T4, PSF exRRM2; experiment: as above; details: protein: recombinant; tags: 6xHis-FLAG N-term; label: uniform 32P
[7] = target: T5, PSF exRRM1; experiment: EMSA; unmeasurable affinity; UV crosslinking: 12 mM Tris pH 7.5, 120 mM NaCl, 3 mM MgCl2, 1 mM ATP, 20 mM phosphocreatine, 0.1 mM EDTA, 12% glycerol, 1.3% PVA, 25 ng/ul yeast tRNA, 20 ng/ul; details: protein: recombinant; tags: 6xHis-FLAG N-term; label: uniform 32P

Row | Binder | binding result [5] | binding result [6] | binding result [7] | further results
1 | B1 |  |  |  | binding result [1]: binds; binding result [2]: binds
2 | B2 |  |  |  | binding result [3]: binds
3 | B3 |  |  |  | binding result [4]: binds
4 | B4 | binds | binds | no binding | 
5 | B5 | binds | binds | no binding | 
